{"source": "the domain aggregation screens of Martell et al. (2025)", "data": [{"test": "soluble fraction after stress (log2 fold change); higher = more stays soluble; pooled small domains, quantitative proteomics", "details": "stress: 50 degC", "procedure,_shortened": "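Each library was heated to 50°C as a stress step. The libraries, made up of small protein domains, were pooled and analysed at high throughput by quantitative proteomics. The reported value is the base-two logarithm of the fold change in each protein's soluble amount after stress, taken as a measure of aggregation propensity. The higher the value, the more protein stays in solution.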", "values": [{"sequence": "HMEERDMKGSISDLVERYADQLTDEQLEEIVLGIKNGLLEEDVKSYFFLPAEDMRRIRTALEQVR", "soluble fraction (log2)": 0.00866}, {"sequence": "HMGPSEVTLDNFVGKNYTDVVNDTSYQFTFKKEEKSDQTHAAGIIIAQSPKKGIKVKSNSTVTLTVSTG", "soluble fraction (log2)": -0.0626}, {"sequence": "HMEDHMVVFGKGGRITRLPDKATVLEYLDAANFFASRSSVVKVNGKLASLDQTLRDGDSIEIVD", "soluble fraction (log2)": -0.183}, {"sequence": "HMTSNIIIVPNVVGMTKEQATAALAAAGLNIKLSGVETTDTAAVAVKQKPSANTKVEEGSVVTVEFDLK", "soluble fraction (log2)": 0.0533}, {"sequence": "HMVYFDDEELDRFAGRAADSYTSDETDEFRDVMLTLLPADVMPWTQSIEMRGILLPEQLRDELLML", "soluble fraction (log2)": -0.764}, {"sequence": "HMINSFDYLQAIFTELMKSQSKMTNQDAAKRLFMQGKVAVSNRDREGLRMVLAQLVTLLPKEELGGLSTVS", "soluble fraction (log2)": 0.0921}, {"sequence": "HMWQKGEPAITGLKRISKPGLRIYSKNDELPIVYGNRGIAVISTNKGVMTGIEAKRSGVGGEVLFYV", "soluble fraction (log2)": -0.045}, {"sequence": "HMYITGAVIRKLREKNNITQLQLAERLRVSDKTISKWETGKGYPDITLLEPIAKTFSVSVTELISGDI", "soluble fraction (log2)": -1.32}, {"sequence": "HMDTNELIDRYVNEVGQHLPRKTRADIEMELRSLLLDTLEEQSGGEPTPKMAAEVLREFGHPEEIAAQYH", "soluble fraction (log2)": -0.0557}, {"sequence": "HMGYQLSLEAQSQLKALGLTSEYITRILDEADNRQPIPGTSRTVYSLNGYQVEFSHSDQQVIRIARG", "soluble fraction (log2)": 0.0139}, {"sequence": "HMSHGNAALTPRQRLRLARLVVDDQWSVSAAAEFFRVSYPTAAKWARRYVELGPAGMADRSS", "soluble fraction (log2)": -1.42}, {"sequence": "HMANDNFPLKLGSKGPRVLQLKTMLIQSLSNDALPKGRSSDAFDSELEALLSRNNLPTVIDETNFRVLTK", "soluble fraction (log2)": 0.386}, {"sequence": "HMTVSLTDVPFVPEILDRLERPELDVLLAILNGATNTFDLAAKTGRSRDELDEVLDRLTTLGLIER", "soluble fraction (log2)": -0.214}, {"sequence": "HMYTDGVPALTDLKKESKPGRRQYVGVEDIPKVLGGLGITILSTSKGLMSGHQAKKKNIGGELIASV", "soluble fraction (log2)": 0.258}, {"sequence": "HMNNFNVVVGKAIKNSFNTRENYITINAGKVLGIKTDMGVINDKGIVGIVEKTSKDFATIQSVLNIKS", "soluble fraction (log2)": 0.00115}, {"sequence": "HMQQAVTMQKPGRLLRNADGNGGAVRDLDVGMMLYPTGNRSELMWEVDDELGNRGWVNSTLFGLS", "soluble fraction (log2)": -0.109}, {"sequence": "HMELSVTDRTRQIRHILKEKGRVEFTSLFEELTKPYVIVTFLSVLEMSKNNELMITQDKTFGSITLEMKG", "soluble fraction (log2)": -0.569}, {"sequence": "HMVELGMSQNEFIQKFGKPFNKEMAYTYDKHKRETLFYKEDLYRGSWFIVTTAFTFVDSKLVSQEIVREER", "soluble fraction (log2)": -3.41}, {"sequence": "HMRRMTEEQSKLFQGLVSIVQTTLVADMEKGAVTPLLIAEKVDFVADNLYPGKDIDRKEAVAELIRRFSLW", "soluble fraction (log2)": -0.339}, {"sequence": "HMTPQDYEYLRKLLKDQSGLDLSVDKQYLLESRLVPLSRKAGLAGIPELVQKMKAGSASLTAQVVEAMTT", "soluble fraction (log2)": 0.00429}, {"sequence": "HMVEGTVKWFNDEKGFGFIEQEGGKDVFVHFSAINGSGRRTLHEGQRVTMEVTQGQKGPQAENVNP", "soluble fraction (log2)": 0.181}, {"sequence": "HMQGIPVTVTAERANLRSGPGTSFDKLGQVVQGDVLTLLEVQNDWYKVKTAEGKTAFVAAYLVNSP", "soluble fraction (log2)": 0.0205}, {"sequence": "HMKKEQVIVPNVVGDTYDVALRKLTDAKLKVGETFPADREGHQGVIEKQSPAAGETVDEDTPVALFFKV", "soluble fraction (log2)": 0.0344}, {"sequence": "HMHGYLSDPAARLIRARRKTLSIRITQEGNLEIRAPLGMPKGEIEAFLKEKAQWIETHRAKVLAEYA", "soluble fraction (log2)": -2.24}, {"sequence": "HMIAIGDDARLDDAARFFRIAEDSYAAGDYRKSKENYIEARKLYAELGDHEKVNLINSKISAIDSIT", "soluble fraction (log2)": 0.0633}, {"sequence": "HMSDIYSLFERELGRTLSSYEYEIIGKWIEKGVSEDTIKRALKEAILNGVTNFKYIDKIIYDWSKN", "soluble fraction (log2)": -0.499}, {"sequence": "HMDDEAVQIMTLHISKGLEFDVVFALGLVSRTPESKEIEELEAEKQRQLYVAMTRAEKWLIVAA", "soluble fraction (log2)": -0.12}, {"sequence": "HMEPTLVVARDKDAKSPLVAKLMKELGVDAAPRVIVDDSVIGGAKLSHNHTEIDATYKTALINLYQAIT", "soluble fraction (log2)": 0.126}, {"sequence": "HMGAEIRDKVRAALAGLNPRAAEIFVMRYFDGYGNREIARLLNTSWSTIAVTLHRTRAKLQKELK", "soluble fraction (log2)": -0.101}, {"sequence": "HMDTFNVIARQEIDGILYEYKIMTVEDYKNQSPENLAVIYENIKAVMEQYDLSEDDADAILVDLLG", "soluble fraction (log2)": -1.12}, {"sequence": "HMISLNEDQKLAILNEWNQRPDDPPFIKELIELVFPDIPEEAKTGRSRYGIAIKKFLAEKSLQAKV", "soluble fraction (log2)": -0.305}, {"sequence": "HMAFRLPNGYGTIRRLTGNRRKPYVALVNPTQVFDDEKGTSHYKYDLLGTFAEKIDAYNAVMQYHKSPGGL", "soluble fraction (log2)": -1.35}, {"sequence": "HMLALVREQIERNVSNPTDEDIRKIRHDVMEVITRAGADAATVDIAIEIDSQKNILRAIATGATEL", "soluble fraction (log2)": -0.0114}, {"sequence": "HMGQDLSYYIKIVQNQQPVDPLTGEPKVLDYGEVIRQAQILQMLDTGDLDRDKAIGQLSMKDAL", "soluble fraction (log2)": 0.0152}, {"sequence": "HMGMAGILDSARMASFIQEKLGYGGGQIRASVMGGHGDDMVPLPRYSTVAGVPLSDVLTQNEIDEMFAQ", "soluble fraction (log2)": -0.0615}, {"sequence": "HMAAQDIILKRNAEQIEAIVKEITDTDVKYRKFTNTEGVTYSIRRSEVFSITYENGTMDLFA", "soluble fraction (log2)": 0.0231}, {"sequence": "HMAYMETIERVEALAPGTKFNLKALFGTDWTQSRGTKLTLGKTFYEMVESGYVKTAKVLGKDSSNIMQYER", "soluble fraction (log2)": -0.107}]}]}
